Data published in the RNAGym collection of RNA variant scans (doi:10.7554/elife.90254).

B1: LINE1-mini (parent)
chain: GGCAGAGCUCAACACAGCGUGGCAAAGUGGCUGUGGCUAGACUGCC

Variants of: B1
Assay: self-cleavage, relative activity (ratio to wild type); higher = more cleavage; in vitro, sequencing; the parent is a self-cleaving ribozyme

Variant	self-cleavage
G35C U38C	0.05
A11G C13A	0.04
G7U G30U	0.1
C13A G44A	0.09
C3A A14C	0.16
G22C C45A	0.39
C8A U38A	0.26
C23U U43G	0.03
A14U C46U	0.28
G36U C42U	0.06
G1C G21A	0.42
U9G U43C	0.04
U9G U43A	0.07
U9G A11C	0.02
C15A G27A	0.15
G1U U20G	0.16
G17A U32G	0.06
G17A U32C	0.09
A41G C45A	0.09
U28C C37G	0.01
A11U G36A	0.02
G1U A14U	0.16
A12C G27C	0.03
G36A A41C	0.05

Variant	self-cleavage
C23A A41U	0.84
G22C U32A	0.04
C18A U32A	0.05
A12U G19A	0.42
C15G G19C	0.13
U43G G44A	0.37
G17U G21C	1.31
A25U U28C	1.19
A4C A14C	0.1
G2U G30A	0.09
U20C C37U	0.06
G2U A14C	0.01
G30A U34A	0.05
G17C G19U	0.24
A14C U43G	0.01
C18G G36U	0.07
C18G G36C	0.08
U38A U43C	0.13
C13U U38G	0.02
G2C A6C	0.12
U38G C45A	0.04
G7A G30U	0.24
G36U U38A	0.05
A14G C46G	0.14

Variant	self-cleavage
C3G U38A	0.18
G19A C23A	0.96
A25C U34A	0.12
G2A U20C	0.48
G21C A41U	0.5
C13A U32A	0.11
C13A U32C	0.09
C13G G33U	0.03
C13G G33C	0.04
A11U C23G	0.11
G21A U32G	0.1
G5U A24U	0.08
G19C	0.5
G21C G33U	0.11
C42A G44A	0.25
G5A G30A	0.22
G19C U28G	0.37
C13A A25U	0.11
G29A U38G	0.01
G1C C15U	0.07
C3U C13U	0.23
G2C U20C	0.08
G2A A41C	0.08
C18U G44A	0.22

Variant	self-cleavage
C31G G35A	0.04
G17U A26C	0.23
C15U C23U	1.91
U20G U38A	0.2
U32G G35C	0.1
G5A C13G	0.08
C15A G21C	0.11
A24G G27U	0.57
G19A G27U	0.93
G1C G22U	0.17
A4U A26C	0.14
G33U C42G	0.07
U32C G33U	0.13
C10G A14U	0.05
G1A C3G	0.56
A6G A41G	0.39
C15G A39G	0.03
G21A U34G	0.64
C18A A26C	2.92
A26C G35U	0.09
A25G C37A	0.05
A14C C31A	0.07
G29U U32A	0.34
G27A C42A	0.21

Variant	self-cleavage
A6U A16G	0.14
G21A A41U	0.83
U20C G40U	0.1
C18G G44A	0.07
A4U C31G	0.05
A6C C8A	0.26
C15U G29A	1.1
A12G U43G	0.1
A11C G33U	0.04
C42G C46U	0.09
U28G G35A	0.14
G29A C37U	0.05
C45A C46U	0.4
C23U U28A	0.82
C23U U28C	1.37
C3U U43A	0.14
G7A C31G	0.08
C10G G30A	0.21
G29A A39G	0.07
U34G A39C	0.05
G35C C37G	0.09
C31A U34G	0.02
C15A C42U	0.05
C23G C31U	0.2

Variant	self-cleavage
G22U U43A	0.06
C23A C45A	1.12
U9C C46U	0.03
C3G G17U	0.15
U28A A39C	0.15
U9C C45A	0.05
C13U G19C	0.07
G30C U34A	0.12
G33A U43A	0.12
U34C C45A	0.05
A11C G21U	0.1
G1U C15A	0.08
G30A A39U	1.69
G27A U28C	0.87
A16G G29A	1.23
A16G G40C	0.07
A24C C31U	0.12
C23G G30C	2.06
A14G G30U	0.34
G7A A39G	0.07
A25U C46U	1.04
G5A C37U	0.13
A4C G19C	0.07
U9G U28C	0.04

Variant	self-cleavage
C31G G40U	0.03
G36A C42A	0.16
A11U G33C	0.02
G21C G22A	0.48
G1C U38C	0.06
C10A C45A	0.04
A6C G30A	1.01
G1U C45A	0.26
G5U U43G	0.1
G22A C31G	0.1
A11G U28G	0.02
G7C U28C	0.1
A14G G19U	0.54
G1A A11C	0.04
C3A A6C	0.38
G17U C18A	0.18
G7A G29C	0.07
G7A G29U	0.2
C8G C10U	0.06
G7U G44A	0.09
A11G G36U	0.02
C3G U20C	0.41
G22A G36A	0.1
